The text below walks through data of publication PMC12305717.

For assay [1], the target named is DnaK (E. coli Hsp70) (E. coli) (UniProt P0A6Y8).
For assay [2], the target named is Ssa1 (yeast cytosolic Hsp70) (yeast) (UniProt P10591).
Assay [3] has the same target. The source holds these as a separate data set.

Sequence of Ssa1 (yeast cytosolic Hsp70) (yeast) (P10591 whole entry): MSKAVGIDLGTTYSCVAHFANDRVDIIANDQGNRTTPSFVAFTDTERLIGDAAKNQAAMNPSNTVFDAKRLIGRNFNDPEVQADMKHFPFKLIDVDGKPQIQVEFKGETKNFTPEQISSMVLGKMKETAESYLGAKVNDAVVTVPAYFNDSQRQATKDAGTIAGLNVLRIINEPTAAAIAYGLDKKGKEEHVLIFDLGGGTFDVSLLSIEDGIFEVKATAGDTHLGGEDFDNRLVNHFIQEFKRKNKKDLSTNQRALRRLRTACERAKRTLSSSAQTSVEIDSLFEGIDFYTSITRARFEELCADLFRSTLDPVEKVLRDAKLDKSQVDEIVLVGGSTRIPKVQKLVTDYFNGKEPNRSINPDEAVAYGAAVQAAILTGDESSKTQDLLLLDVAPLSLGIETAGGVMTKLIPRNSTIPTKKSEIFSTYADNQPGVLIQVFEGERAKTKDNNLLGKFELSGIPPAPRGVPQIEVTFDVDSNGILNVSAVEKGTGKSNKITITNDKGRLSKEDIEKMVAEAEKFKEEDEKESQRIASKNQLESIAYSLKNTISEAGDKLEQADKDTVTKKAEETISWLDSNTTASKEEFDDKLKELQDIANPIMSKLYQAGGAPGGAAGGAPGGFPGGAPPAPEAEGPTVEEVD
Sequence of DnaK (E. coli Hsp70) (E. coli) (P0A6Y8 whole entry): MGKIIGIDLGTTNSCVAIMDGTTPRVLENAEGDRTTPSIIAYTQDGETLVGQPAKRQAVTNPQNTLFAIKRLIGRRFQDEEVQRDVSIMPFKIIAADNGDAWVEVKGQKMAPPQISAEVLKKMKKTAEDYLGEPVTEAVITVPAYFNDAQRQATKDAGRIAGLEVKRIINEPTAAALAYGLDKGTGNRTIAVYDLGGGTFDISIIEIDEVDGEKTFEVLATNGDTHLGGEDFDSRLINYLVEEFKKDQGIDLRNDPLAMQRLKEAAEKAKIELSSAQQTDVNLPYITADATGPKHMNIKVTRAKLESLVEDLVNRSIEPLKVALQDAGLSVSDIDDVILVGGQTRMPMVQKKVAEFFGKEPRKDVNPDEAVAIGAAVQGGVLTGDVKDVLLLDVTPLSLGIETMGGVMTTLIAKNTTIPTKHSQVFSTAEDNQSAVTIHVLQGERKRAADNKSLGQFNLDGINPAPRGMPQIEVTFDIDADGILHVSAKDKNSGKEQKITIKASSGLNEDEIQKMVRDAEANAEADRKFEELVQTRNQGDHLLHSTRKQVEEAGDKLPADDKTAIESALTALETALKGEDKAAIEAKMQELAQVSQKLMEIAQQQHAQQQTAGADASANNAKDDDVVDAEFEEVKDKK

B1: GrpE (E. coli nucleotide exchange factor) (natural protein)
chain: MSSKEQKTPEGQAPEEIIMDQHEEIEAVEPEASAEQVDPRDEKVANLEAQLAEAQTRERDGILRVKAEMENLRRRTELDIEKAHKFALEKFINELLPVIDSLDRALEVADKANPDMSAMVEGIELTLKSMLDVVRKFGVEVIAETNVPLDPNVHQAIAMVESDDVAPGNVLGIMQKGYTLNGRTIRAAMVTVAKAKA
On to B1, for which, in assay [1], the EC50 of GrpE for raising the yields of disaggregation and refolding of pre-aggregated MlucV by 4000 nM DnaK + 1000 nM DnaJ came to 200 nM.

B2: Sse1 (yeast Hsp110), wild type (natural protein)
chain: MSTPFGLDLGNNNSVLAVARNRGIDIVVNEVSNRSTPSVVGFGPKNRYLGETGKNKQTSNIKNTVANLKRIIGLDYHHPDFEQESKHFTSKLVELDDKKTGAEVRFAGEKHVFSATQLAAMFIDKVKDTVKQDTKANITDVCIAVPPWYTEEQRYNIADAARIAGLNPVRIVNDVTAAGVSYGIFKTDLPEGEEKPRIVAFVDIGHSSYTCSIMAFKKGQLKVLGTACDKHFGGRDFDLAITEHFADEFKTKYKIDIRENPKAYNRILTAAEKLKKVLSANTNAPFSVESVMNDVDVSSQLSREELEELVKPLLERVTEPVTKALAQAKLSAEEVDFVEIIGGTTRIPTLKQSISEAFGKPLSTTLNQDEAIAKGAAFICAIHSPTLRVRPFKFEDIHPYSVSYSWDKQVEDEDHMEVFPAGSSFPSTKLITLNRTGDFSMAASYTDITQLPPNTPEQIANWEITGVQLPEGQDSVPVKLKLRCDPSGLHTIEEAYTIEDIEVEEPIPLPEDAPEDAEQEFKKVTKTVKKDDLTIVAHTFGLDAKKLNELIEKENEMLAQDKLVAETEDRKNTLEEYIYTLRGKLEEEYAPFASDAEKTKLQGMLNKAEEWLYDEGFDSIKAKYIAKYEELASLGNIIRGRYLAKEEEKKQAIRSKQEASQMAAMAEKLAAQRKAEAEKKEEKKDTEGDVDMD
With B2, in assay [2], the EC50 of Sse1 for raising the yields of disaggregation and refolding (luciferase activity after 2 h) of pre-aggregated MlucV or luciferase by 4000 nM Ssa1 + 1000 nM Sis1 with ATP turned out to be 100 nM; the IC50 of excess Sse1 (above 250 nM) for inhibiting the disaggregation and refolding reaction of 4000 nM Ssa1 + 1000 nM Sis1; complete inhibition at equimolar Sse1 and Ssa1 was 1200 nM. For the same molecule, the optimal concentration of WT Sse1 for activating the disaggregation/refolding of pre-aggregated luciferase by 6000 nM Ssa1 + 1000 nM Sis1 in assay [3] was determined as 600 nM.

B3: Sse1-K69M (natural protein)
chain: MSTPFGLDLGNNNSVLAVARNRGIDIVVNEVSNRSTPSVVGFGPKNRYLGETGKNKQTSNIKNTVANLMRIIGLDYHHPDFEQESKHFTSKLVELDDKKTGAEVRFAGEKHVFSATQLAAMFIDKVKDTVKQDTKANITDVCIAVPPWYTEEQRYNIADAARIAGLNPVRIVNDVTAAGVSYGIFKTDLPEGEEKPRIVAFVDIGHSSYTCSIMAFKKGQLKVLGTACDKHFGGRDFDLAITEHFADEFKTKYKIDIRENPKAYNRILTAAEKLKKVLSANTNAPFSVESVMNDVDVSSQLSREELEELVKPLLERVTEPVTKALAQAKLSAEEVDFVEIIGGTTRIPTLKQSISEAFGKPLSTTLNQDEAIAKGAAFICAIHSPTLRVRPFKFEDIHPYSVSYSWDKQVEDEDHMEVFPAGSSFPSTKLITLNRTGDFSMAASYTDITQLPPNTPEQIANWEITGVQLPEGQDSVPVKLKLRCDPSGLHTIEEAYTIEDIEVEEPIPLPEDAPEDAEQEFKKVTKTVKKDDLTIVAHTFGLDAKKLNELIEKENEMLAQDKLVAETEDRKNTLEEYIYTLRGKLEEEYAPFASDAEKTKLQGMLNKAEEWLYDEGFDSIKAKYIAKYEELASLGNIIRGRYLAKEEEKKQAIRSKQEASQMAAMAEKLAAQRKAEAEKKEEKKDTEGDVDMD
B3: in assay [3], the concentration at which excess Sse1-K69M inhibits the disaggregation/refolding by 6000 nM Ssa1 + 1000 nM Sis1, against WT Sse1 (fold lower than WT Sse1) stood at 4 and the optimal concentration of Sse1-K69M for activating the disaggregation/refolding of pre-aggregated luciferase by 6000 nM Ssa1 + 1000 nM Sis1 was found to be 200 nM.
